{"source": "patent US20250296984A1", "about": "“THERAPEUTIC AND DIAGNOSTIC AGENTS AND USES THEREOF” (priority 2022, published 2025)", "molecules": {"B1": {"name": "US28-13-5G6-1D3: monoclonal antibody against ECD3 of HCMV US28; VH SEQ ID NO: 12, VL SEQ ID NO: 18; rAb is the recombinant product (antibody, V domains shown)", "VH": "EVKLVESGGGLVQPGGSLRLACATSGFTFTDYYMSWVRQPPGKALEWLGFIRSKANGYTTEYSASVKGRFTISRDNSQSILYLQMNTLRSEDSATYYCARDERRTAWLAYWGQGTLVTVSA", "VL": "DVLMTQTPLSLPVSLGDQASISCRSSQSIVHSNGNTYLDWYLQKPGQSPKLLIYKVSNRFSGVPDRFSGSGSGTDFTLKISRVEAEDLGVYYCFQGSHVPTWTFGGGTKLEIK", "modifications": "Mature form of VH sequence of 1D3, without the leader sequence; Mature form of VL sequence of 1D3, without the leader sequence", "notes": "monoclonal antibody against ECD3 of HCMV US28; rAb is the recombinant product"}, "B2": {"name": "13-5G6-1D3: mouse monoclonal IgG1 kappa antibody against US28 ECD3; VH SEQ ID NO: 12, VL SEQ ID NO: 18 (antibody, V domains shown)", "VH": "B1 VH", "VL": "B1 VL", "modifications": "Mature form of VH sequence of 1D3, without the leader sequence; Mature form of VL sequence of 1D3, without the leader sequence"}, "B3": {"name": "7B1F3: mouse IgG1 kappa antibody against US28 ECD1 Peptide-N; VH SEQ ID NO: 211, VL SEQ ID NO: 213 (antibody, V domains shown)", "VH": "EVQLQQSGAELAKPGASVKMSCKASGYTFTNYWMHWVKQRPGQGLEWIGYVNPRTGYTEYNQKFKDKATLTADKSSRTAYMQLSSLTSEDSAVYSCARILNGTGFAYWGQGTLVTVSA", "VL": "DIVLTQSPSSLTVSVGEKFTMSCKSSQSLLYSSNQKNYLAWYQQKPGQSPKLLIYWASTRESGVPDRFTGSGSGTDFTLAISSVKPEDLAIYYCQQYYSFPLTFGAGTKLEIK", "modifications": "Mature form of VH sequence of 7B1F3, without the leader sequence; Mature form of VL sequence of 7B1F3, without the leader sequence"}}, "key": {"[1]": {"target": "T1, Peptide-1 […] (SEQ ID NO: 6, 4N variant of ECD3 of US28) (Human cytomegalovirus, UniProt P69332, D170N)", "T1 construct": "made in house; host or cells: chemical synthesis", "assay_type": "binding, human cytomegalovirus (HCMV)", "details": "both ECD3 variants compared", "excerpt": "The binding specificity of a binding molecule of the first aspect of the present invention having anti-ECD3 binding specificity in addition to the anti-SEQ ID NO: 177 specificity (and/or a second binding molecule having anti-ECD3 binding specificity with which a binding molecule of the first aspect of the present invention may be combined in a formulation) to an epitope within ECD3 of a US28 protein may, for example, be assessed in an ELISA, such as a methodology as described in the examples of this application, or by a variant of said methodology, such as by coating peptides derived from ECD3 (such as Bio-Peptide 1 and/or Bio-Peptide-2) on a first set of wells in a microtiter plate and coating a negative control (such as BSA) in a second set of wells in a microtiter plate. The first set of wells may optionally be further subdivided into a first subgroup of the first set of wells that comprises the sequence of a 4N-variant from ECD3 of US28, and a second subgroup of the first set of wells that comprises the sequence of a 4D-variant from ECD3 of US28, to permit the determination of the relative binding specificity to each variant. […]"}, "[2]": {"tested_on": "human heart muscle tissue", "assay": "Immunohistochemistry (IHC) on human cardiac tissues", "details": "FIG. 19 B", "experimental": "Cytomegalovirus (CMV) control slides containing CMV positive lung tissue and CMV negative myometrium (product number #3240A) were obtained from Newcomer Supply Inc., Middleton, WI 53562-2579, USA. Tissue micro-arrays (TMAs) were obtained from US Biomax Inc., Derwood, MD 20855, USA, and included tumor tissues #BR1008b, #BS17016c, #BCN721b and normal tissues #FDA662a and heart tissues #HEN241a.\nThe paraffin sections were sequentially immersed into a. 100% xylene three times (5 min each); b. 100% ethanol twice (2 min each); c. 95% ethanol twice (2 min each). The slides were rinsed twice in water for 5 min to remove ethanol. […], the slides were immersed in 3% H2O2 for 5 minutes and washed thereafter twice (2×) with distilled water. The slides were then immersed in the working citrate buffer (pH 6.0) and covered with a lid. The buffer was heated in the microwave until it had boiled, and then kept in the steamer for 15 min.\nThe sections were cooled at room temperature for 30 min and washed with PBS. 5% BSA blocking solution was then added to the HIER treated samples and they were incubated at 37° C. for 30 min. […] Digitized pictures were taken by Olympus VS120 scanner and analyzed by using OlyVia 3.2 software (Olympus Corporation, 20101 Tokyo, Japan) by senior Pathologist. […]"}, "[3]": {"tested_on": "human primary cells (adrenal cortical, kidney epithelial, cardiac microvascular endothelial, liver epithelial, vein smooth muscle)", "assay": "FACS off-target binding to human primary cells", "details": "FIG. 19 A", "experimental": "Primary cells from different tissue origin were cultured in T25 flasks coated with 3 mL Gelatin-Based Coating Solution (Cellbiologeics, 6950) and placed at 37° C. for 1h. Excess solution was aspirated before cell seeding. 15 mL centrifuge tube were prepared with 6 mL preheated complete medium. Primary cells stored in liquid nitrogen were quickly thawed in 37° C. water bath for <1 min, and transferred to the 15 mL centrifuge tube. Cells were centrifuged at 1000 rpm for 5 minutes, before aspirating the supernatant and resuspending the cell pellet in 6 mL complete medium. Resuspended cells were added into the pre-coated T25 flask, and incubated in a humidified incubator at 37° C. with 5% CO2. […]\nFlowcytometry was used to analyze cell surface binding by the US28 antibodies. Upon cell harvest, adherent non-infected and US28 overexpressing or HCMV infected cells were washed three times with cell staining buffer (phosphate-buffered saline (PBS (Amresco, Cleveland, 44139, USA) added 0.5% BSA and 0.05% Sodium Azide (NaN3)). The cells were trypisinized and then resuspended in DMEM with 10% FBS to inhibit the action of trypsin. The cells were then pelleted at 400×g for 10 minutes and washed three times in cell staining buffer. Cell viability and cell concentration were measured by tryphan blue viability assay and a cell counter (Countess, Invitrogen, Carlsbad, CA 92008, USA). […]"}, "[4]": {"target": "BSA (Bos taurus, UniProt P02769)", "sequence (P02769 25-607)": "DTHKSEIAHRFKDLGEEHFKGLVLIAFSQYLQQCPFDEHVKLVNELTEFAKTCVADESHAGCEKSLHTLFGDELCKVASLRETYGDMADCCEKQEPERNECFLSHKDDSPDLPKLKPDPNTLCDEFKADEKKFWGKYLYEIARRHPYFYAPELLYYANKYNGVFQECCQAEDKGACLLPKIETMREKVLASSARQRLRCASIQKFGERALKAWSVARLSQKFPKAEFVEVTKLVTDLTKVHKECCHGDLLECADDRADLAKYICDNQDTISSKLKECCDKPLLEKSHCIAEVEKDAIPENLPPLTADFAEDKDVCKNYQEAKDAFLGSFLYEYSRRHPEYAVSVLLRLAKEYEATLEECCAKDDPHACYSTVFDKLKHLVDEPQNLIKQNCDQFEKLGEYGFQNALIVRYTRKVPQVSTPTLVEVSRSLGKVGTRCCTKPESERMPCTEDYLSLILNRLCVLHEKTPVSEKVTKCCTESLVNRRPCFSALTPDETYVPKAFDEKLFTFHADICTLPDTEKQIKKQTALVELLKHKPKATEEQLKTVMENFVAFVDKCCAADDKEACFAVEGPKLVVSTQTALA", "assay": "ELISA, BSA coating (control)", "assay_type": "binding", "details": "ECD1 subclones", "experimental": "Microtiter plate wells were coated with 100 μl of the solution containing: (i) Bio-Peptide-N; or (ii) Bio-Peptide-1 and Bio-Peptide-2; at a concentration of between 1-10 μg/ml in coating buffer, consisting of Na2CO3, 1.5 g and NaHCO3, 2.93 g in 1 L of distilled water in pH 9.6, and then incubated for 1-2 hours at room temperature. The plate was washed 3 times in wash buffer consisting of PBS containing 0.05% v/v Tween-20 and blotted with paper towels thereafter. 150 μl of blocking solution containing Phosphate buffered saline (PBS) containing 1% w/v BSA, was added to each well and the plate was incubated for 2 hours at 37° C. The wells were washed 4 times in wash buffer and blotted on paper towels after the last wash. 100 μl of antibody dilution was added to each well and the plate was incubated for 1 hour at 37° C. and thereafter washed 3 times in wash buffer. 100 μl enzyme-conjugated secondary antibody (appropriately diluted in wash buffer) was added to each well and the plate was incubated for 1 hour at 37° C. The wells were then again washed 3 times in wash buffer and blotted with paper towels after the last wash. […] The absorbance values were read immediately at the appropriate wavelength and the data analyzed by Cmax Plus, Molecular Devices, San Jose, CA 95134, USA,"}}, "data": [{"molecule": "B1", "values": [{"measurement": "qualitative ELISA binding to Bio-Peptide-1 (4N) and Bio-Peptide-2 (4D)", "setting": "[1]", "result": "equal qualitative binding"}]}, {"molecule": "B2", "values": [{"measurement": "off-target binding in IHC", "setting": "[2]", "result": "did not show any general off-target binding"}, {"measurement": "surface binding on human primary cells", "setting": "[3]", "result": "< 1", "unit": "%"}]}, {"molecule": "B3", "values": [{"measurement": "absorbance, Coating: BSA", "setting": "[4]", "result": 0.0474}]}]}
